From the RNAGym collection of RNA variant scans (doi:10.7554/elife.80360) come the findings set out here.

B1: Hairpin Ribozyme (parent)
chain: GUCCUCUUUCACGUGCGCGUGAAAGAGAGAAGUGAACCAGAGAAACACACGUUGUGGUAUAUUACCUGGUA

Variants of B1 are the subject of the data set. The data set can be described thus: self-cleavage, relative activity (ratio to wild type); higher = more cleavage; co-transcriptional.
For GUCCUCUUUCACGUGCGCGUGGAAGAGAGAAGUGAACCAGAGAAACACACGUUGUGGUGUAUUACCUGGUA [A22G A59G], the self-cleavage is 0.212.

In the case of GUCCUCUUUCACGUGCGCGUGCAAGAGAGAAGUGAACCAAAGAAACACACGUUGUGGUAUAUUACCUGGUA [A22C G40A], the self-cleavage came to 0.242.

GUCCUCUUUCACGUGCGCGUGGAAGAGAGAAGUGAUCCAGAGAAACACACGUUGUGGUAUAUUACCUGGUA [A22G A36U]: the self-cleavage is 0.423.

For GUCCUCUUUCACGUGCGCGUGGAAGAGAGAAGUGACCCAGAGAAACACACGUUGUGGUAUAUUACCUGGUA [A22G A36C], the self-cleavage was 0.515.

Take GUCCUCUUUCACGUGCGCGUGCAAGAGAGAAGUGAACCAGAGAAACACACGUUGUGGUAUAUUACCUGGUA [A22C]: the self-cleavage was 0.848.

Turning to GUCCUCUUUCACGUGCGCGUGGAAGAGAGAAGUGAACCAGAGAAACACACGUUGUGGUAUAUUACCUGGUA [A22G], the self-cleavage was 0.871.

Take GUCCUCUUUCACGUGCGCGUGCAAGAGAGAAGUGAACCAGAGAAACACACGUUGUGGGAUAUUACCUGGUA [A22C U58G]: the self-cleavage worked out at 0.575.

On to GUCCUCUUUCACGUGCGCGUGCAAGAGAGAAGUGAAACAGAGAAACACACGUUGUGGUAUAUUACCUGGUA [A22C C37A], for which the self-cleavage amounted to 0.25.

Take GUCCUCUUUCACGUGCGCGUGCAAGAGAGAAGUGAAGCAGAGAAACACACGUUGUGGUAUAUUACCUGGUA [A22C C37G]: the self-cleavage was 0.368.

On to GUCCUCUUUCACGUGCGCGUGCAAGAGAGAAGUGAAUCAGAGAAACACACGUUGUGGUAUAUUACCUGGUA [A22C C37U], for which the self-cleavage is 0.435.

Turning to GUCCUCUUUCACGUGCGCGUGGAAGAGUGAAGUGAACCAGAGAAACACACGUUGUGGUAUAUUACCUGGUA [A22G A28U], the self-cleavage came out at 0.673.

For GUCCUCUUUCACGUGCGCGUGGAAGAGCGAAGUGAACCAGAGAAACACACGUUGUGGUAUAUUACCUGGUA [A22G A28C], the self-cleavage was determined as 0.689.

Take GUCCUCUUUCACGUGCGCGUGCAAGAGAUAAGUGAACCAGAGAAACACACGUUGUGGUAUAUUACCUGGUA [A22C G29U]: the self-cleavage was determined as 0.131.

Consider GUCCUCUUUCACGUGCGCGUGCAAGAGAAAAGUGAACCAGAGAAACACACGUUGUGGUAUAUUACCUGGUA [A22C G29A], for which the self-cleavage was found to be 0.0644.

Consider GUCCUCUUUCACGUGCGCGUGCAAGAGAGAAGUGAACCAGAGAAACACACGUUGUAGUAUAUUACCUGGUA [A22C G56A], for which the self-cleavage worked out at 0.165.

As for GUCCUCUUUCACGUGCGCGUGCAAGAGAGAGGUGAACCAGAGAAACACACGUUGUGGUAUAUUACCUGGUA [A22C A31G], the self-cleavage was 0.642.

As for GUCCUCUUUCACGUGCGCGUGCAAGAGAGACGUGAACCAGAGAAACACACGUUGUGGUAUAUUACCUGGUA [A22C A31C], the self-cleavage was 0.16.

Turning to GUCCUCUUUCACGUGCGCGUGCAAGAGAGAUGUGAACCAGAGAAACACACGUUGUGGUAUAUUACCUGGUA [A22C A31U], the self-cleavage was determined as 0.108.

As for GUCCUCUUUCACGUGCGCGUGCAAGAGAGAAGUGAACCAGAGAAACACACGUUGUGGUAUACUACCUGGUA [A22C U62C], the self-cleavage is 0.196.

GUCCUCUUUCACGUGCGCGUGGAAGAGAGAAGUGAACCAGAGAAACACACGUUGUGGUAUGUUACCUGGUA [A22G A61G]: the self-cleavage was 0.285.

Turning to GUCCUCUUUCACGUGCGCGUGCAAGAGAGAAGUGAGCCAGAGAAACACACGUUGUGGUAUAUUACCUGGUA [A22C A36G], the self-cleavage came out at 1.05.

Take GUCCUCUUUCACGUGCGCGUUAAAGAGAGAAGUGAACCAGAGAAACACACGUUGUGGUAUAUUACCUGGAA [G21U U70A]: the self-cleavage was 0.791.

For the variant GUCCUCUUUCACGUGCGCGUUAAAGAGAGAAGUGAACCAGAGAAACACACGUUGUGGUAUAUUACCUGGGA [G21U U70G], the self-cleavage turned out to be 0.687.

As to GUCCUCUUUCACGUGCGCGUGCAAGAGAGAAGUGAACCAGAGAAACACACGUUGUGCUAUAUUACCUGGUA [A22C G57C], the self-cleavage worked out at 0.117.

On to GUCCUCUUUCACGUGCGCGUGCAAGAGAGAAGUGAACCAGAGAAACACACGUUGUGUUAUAUUACCUGGUA [A22C G57U], for which the self-cleavage amounted to 0.162.

For the variant GUCCUCUUUCACGUGCGCGUUAAAGAGAGAAGUGAACCAGAGAAACACACGUUGUGGUAUACUACCUGGUA [G21U U62C], the self-cleavage amounted to 0.272.

In the case of GUCCUCUUUCACGUGCGCGUGCAAGAGAGAAGUGAACCAGAGAAACACGCGUUGUGGUAUAUUACCUGGUA [A22C A49G], the self-cleavage came to 0.512.

Take GUCCUCUUUCACGUGCGCGUGCAAGAGAGAAGUGAACCAGAGAAGCACACGUUGUGGUAUAUUACCUGGUA [A22C A45G]: the self-cleavage came to 0.15.

Turning to GUCCUCUUUCACGUGCGCGUGCAAGAGAGAAGUGAACCAGAGAAACACACGUUGUGGUAUCUUACCUGGUA [A22C A61C], the self-cleavage turned out to be 0.3.

Turning to GUCCUCUUUCACGUGCGCGUGCAAGAGAGAAGUGAACCAGAGAAACACACGUUGUGGUAUUUUACCUGGUA [A22C A61U], the self-cleavage was 0.204.

Take GUCCUCUUUCACGUGCGCGUGCAAGAGAGAAGUGAACCAGAGAAACACACCUUGUGGUAUAUUACCUGGUA [A22C G51C]: the self-cleavage was determined as 0.769.

As for GUCCUCUUUCACGUGCGCGUGCAAGAGAGAAGUGAACCAGAGAAACACACAUUGUGGUAUAUUACCUGGUA [A22C G51A], the self-cleavage was 0.93.

Turning to GUCCUCUUUCACGUGCGCGUGCAAGAGAGAAGUGAACAAGAGAAACACACGUUGUGGUAUAUUACCUGGUA [A22C C38A], the self-cleavage amounted to 0.124.

On to GUCCUCUUUCACGUGCGCGUGCAAGACAGAAGUGAACCAGAGAAACACACGUUGUGGUAUAUUACCUGGUA [A22C G27C], for which the self-cleavage was found to be 0.123.

On to GUCCUCUUUCACGUGCGCGUGCAAGAGAGAAGUGAACCAGAGAAACACACGUUGUGGUAUAUAACCUGGUA [A22C U63A], for which the self-cleavage is 0.288.

On to GUCCUCUUUCACGUGCGCGUGGAAGAGAGAAGUGAACCCGAGAAACACACGUUGUGGUAUAUUACCUGGUA [A22G A39C], for which the self-cleavage was 0.475.

Regarding GUCCUCUUUCACGUGCGCGUGGAAGAGAGAAGUGAACCUGAGAAACACACGUUGUGGUAUAUUACCUGGUA [A22G A39U], the self-cleavage is 0.42.

For GUCCUCUUUCACGUGCGCGUGGAAGAGAGAAGUGAACCAGAGAAACUCACGUUGUGGUAUAUUACCUGGUA [A22G A47U], the self-cleavage was 0.102.
